Data: patent US20250361288A1 (Gilead, published 2025)

T1: mouse HVEM extracellular domain fused with an Fc fragment at the C-terminus (mouse, UniProt Q80WM9 39-206, limits assumed)
T1 construct: extracellular domain; Bought; also called mHVEM; not shown: Fc fragment at the C-terminus
T1 sequence (looked up): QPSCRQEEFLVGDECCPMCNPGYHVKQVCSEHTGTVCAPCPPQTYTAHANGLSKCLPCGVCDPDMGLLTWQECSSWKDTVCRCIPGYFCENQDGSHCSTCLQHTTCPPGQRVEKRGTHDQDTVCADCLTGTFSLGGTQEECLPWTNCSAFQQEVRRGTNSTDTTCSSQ

T2: human HVEM extracellular domain fused with an Fc fragment at the C-terminus (human, UniProt Q92956 39-202)
T2 construct: extracellular domain; Bought; also called hHVEM; not shown: Fc fragment at the C-terminus
T2 sequence (looked up): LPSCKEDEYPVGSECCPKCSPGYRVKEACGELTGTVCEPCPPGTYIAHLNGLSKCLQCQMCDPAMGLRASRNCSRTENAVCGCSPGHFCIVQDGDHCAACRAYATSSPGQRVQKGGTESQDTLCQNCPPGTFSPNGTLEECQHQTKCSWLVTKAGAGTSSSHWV


Key:
[1] = molecular target: T3, mouse LTβR extracellular domain fused with an Fc fragment at the C-terminus (mouse, UniProt P50284 31-223); test: ELISA on coated target-Fc
T3 construct: extracellular domain; Bought; also called mLTβR; not shown: Fc fragment at the C-terminus
T3 sequence (P50284 31-223): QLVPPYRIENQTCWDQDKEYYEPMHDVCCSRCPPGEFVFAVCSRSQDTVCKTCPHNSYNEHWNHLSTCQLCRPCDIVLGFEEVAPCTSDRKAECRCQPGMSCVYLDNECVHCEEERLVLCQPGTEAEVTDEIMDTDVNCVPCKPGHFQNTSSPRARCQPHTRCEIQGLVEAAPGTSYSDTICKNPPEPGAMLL
Method: (§1) Nunc MaxiSorp 96-well plates (Thermofisher) were coated with target proteins (1 μg/ml), and then blocked with 2% BSA-PBS buffer for one hour. Serial dilutions of the LIGHT muteins were added with a maximum concentration of 200 ng/ml. The plates were incubated for one hour, washed four times with PBST, and then incubated with mouse anti-His tag antibody (#105327, Sino Biological) for 1 hour. The plates were further incubated with HRP-conjugated goat anti-mouse secondary antibody (#SSA006, Sino Biological) before being washed three times with PBST and treated with TMB substrate (#34029, ThermoFisher). The plates were read at 450 nm on a SpectraMax M5 microplate reader (Molecule Devices). The ELISA results were analyzed using GraphPad Prism 9.0 software and the EC50s (half maximal effective concentration) were summarized in Table 5-1 and Table 5-2.

[2] = molecular target: T4, human LTβR extracellular domain fused with an Fc fragment at the C-terminus (human, UniProt P36941 31-227); test: ELISA on coated target-Fc
T4 construct: extracellular domain; Bought; also called hLTβR; not shown: Fc fragment at the C-terminus
T4 sequence (P36941 31-227): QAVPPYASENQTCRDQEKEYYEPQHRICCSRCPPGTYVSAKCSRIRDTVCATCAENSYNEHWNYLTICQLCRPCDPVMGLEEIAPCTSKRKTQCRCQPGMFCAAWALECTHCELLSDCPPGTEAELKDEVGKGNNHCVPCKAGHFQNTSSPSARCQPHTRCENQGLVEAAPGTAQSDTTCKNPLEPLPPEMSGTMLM
Method: as §1

[3] = molecular target: T1, mouse HVEM extracellular domain fused …; test: phage ELISA
Method: (§2) Individual clones from the fourth selection round were grown in 96-well deep well blocks in 100 μl of 2YT broth supplemented with 50 μg/ml ampicillin at 37° C. and 220 rpm for 5 hours. Then, 5 μl of helper phages were added to each well and incubated at 37° C. for 30 minutes. After centrifuging at 3,000 rpm for 10 minutes, the cells were resuspended and grown overnight in 150 μl/well of 2YT broth supplemented with 50 μg/ml ampicillin and 50 μg/ml kanamycin.
(§3) For the ELISA screening, 96-well ELISA plates were coated with target proteins (1 μg/ml in PBS) at 4° C. overnight and then blocked with 2% BSA for 2 hours at room temperature. The supernatant containing phage particles was added to the plates and incubated at room temperature for 1 hour. After incubation, the plates were washed five times with PBST. HRP (horseradish peroxidase) conjugated anti-M13 antibody (Sino Biological, China) was added to the wells and incubated at room temperature for 1 hour. Following another round of washing five times with PBST, 50 μl of TMB (3,3′, 5,5″-tetramethylbenzidine, #34029, ThemoFisher) was added to each well. After 5 minutes, the reaction was stopped by adding 50 μl stop solution (#C1058, Solarbio, China). The absorbance at 450 nm (OD450) was measured using a plate reader (SpectraMax M5, Molecule Devices). Wells coated with BSA were used as negative controls. Phage clones with an ELISA score ratio (target/BSA)>3 were considered positive clones.

[4] = molecular target: T2, human HVEM extracellular domain fused …; test: phage ELISA
Method: as §2, §3

[5] = molecular target: T2, human HVEM extracellular domain fused …; test: ELISA on coated target-Fc
Method: as §1

[6] = molecular target: T3, mouse LTβR extracellular domain fused …; test: phage ELISA
Method: as §2, §3

[7] = molecular target: T4, human LTβR extracellular domain fused …; test: phage ELISA
Method: as §2, §3

Binder | EC50 [1] | EC50 [2] | binding result [3] | binding result [4] | EC50 [5] | binding result [6] | binding result [7]
LIGHT-9 (ligand, Printed mutations: G150S, T161G, L220S; Soluble protein carries an N-terminal His tag) DGPAGSWEQLIQERRSHEVNPAAHLTGANSSLTGSGGPLLWETQLGLAFLRGLSYHDGALVVTKAGYYYIYSKVQLSGVGCPLGLASGITHGLYKRTPRYPEELELLVSQQSPCGRATSSSRVWWDSSFLGGVVHLEAGEKVVVRVSDERLVRLRDGTRSYFGAFMV | 0.0224 µg/mL | 0.0282 µg/mL | binds | no binding |  |  | 
LIGHT-11 (ligand, Printed mutations: G150S, L220S; Soluble protein carries an N-terminal His tag) DGPAGSWEQLIQERRSHEVNPAAHLTGANSSLTGSGGPLLWETQLGLAFLRGLSYHDGALVVTKAGYYYIYSKVQLSGVGCPLGLASTITHGLYKRTPRYPEELELLVSQQSPCGRATSSSRVWWDSSFLGGVVHLEAGEKVVVRVSDERLVRLRDGTRSYFGAFMV | 0.0233 µg/mL | 0.0395 µg/mL | binds | no binding |  |  | 
LIGHT-14 (ligand, Soluble protein carries an N-terminal His tag) DGPAGSWEQLIQERRSHEVNPAAHLTGANSSLTGSGGPLLWESQLGLAFLRGLSYHDGALVVTKAGYYYIYSKVQLGGVGCPLGQASTITHGMYKRTPRYPEELELLVSQQSPCGRATSSSRVWWDSSFLGGVVHLEAGEKVVVRVLDERLVRLRDGTRSYFGAFMV | 0.0249 µg/mL |  |  |  | 0.03 µg/mL |  | 
LIGHT-18 (ligand, Soluble protein carries an N-terminal His tag) DGPAGSWEQLIQERRSHEVNPAAHLTGANSSLTGSGGPLLWETQLGLAFLRGLSYHDGALVITKAGYYYIYSKVQLGGVGCPLGQASTITHGLYKRTPRYPEELELLVSQQSPCGRATSSSRVWWDSSFLGGVVHLEAGEEVVVRVLDKRLVRLRDGTRSYFGAFMV | 0.0413 µg/mL | 0.0894 µg/mL |  |  | 0.0447 µg/mL |  | 
LIGHT-19 (ligand, Soluble protein carries an N-terminal His tag) DGPAGSWEQLIQERRSHEVNPAAHLTGANSSLTGSGGPLLWETQLGLAFLRGLSYHDGALVVSKAGYYYIYSKVQLGGVGCPPGLAGTITHGLYKRTPRYPEELELLVSQQSPCGRATSSSRVWWDSSFLGGVVHLEAGEKVVVRVMDERLVRLRDGTRSYFGAFMV | 0.468 µg/mL |  |  |  | 0.0681 µg/mL |  | 
LIGHT-30 (ligand, Printed mutations: S160R, T161N, L220S; Soluble protein carries an N-terminal His tag) DGPAGSWEQLIQERRSHEVNPAAHLTGANSSLTGSGGPLLWETQLGLAFLRGLSYHDGALVVTKAGYYYIYSKVQLGGVGCPLGLARNITHGLYKRTPRYPEELELLVSQQSPCGRATSSSRVWWDSSFLGGVVHLEAGEKVVVRVSDERLVRLRDGTRSYFGAFMV |  |  | binds |  | 0.157 µg/mL |  | 
LIGHT-32 (ligand, Printed mutations: S160R, L220S; Soluble protein carries an N-terminal His tag) DGPAGSWEQLIQERRSHEVNPAAHLTGANSSLTGSGGPLLWETQLGLAFLRGLSYHDGALVVTKAGYYYIYSKVQLGGVGCPLGLARTITHGLYKRTPRYPEELELLVSQQSPCGRATSSSRVWWDSSFLGGVVHLEAGEKVVVRVSDERLVRLRDGTRSYFGAFMV | 0.0632 µg/mL | 0.247 µg/mL | binds | binds |  |  | 
LIGHT-33 (ligand, Printed mutations: T161P, L220S; Soluble protein carries an N-terminal His tag) DGPAGSWEQLIQERRSHEVNPAAHLTGANSSLTGSGGPLLWETQLGLAFLRGLSYHDGALVVTKAGYYYIYSKVQLGGVGCPLGLASPITHGLYKRTPRYPEELELLVSQQSPCGRATSSSRVWWDSSFLGGVVHLEAGEKVVVRVSDERLVRLRDGTRSYFGAFMV |  | 0.0612 µg/mL | binds |  | 0.0256 µg/mL | binds | 
LIGHT-40 (ligand, Printed mutations: L156P, H208Y; Soluble protein carries an N-terminal His tag) DGPAGSWEQLIQERRSHEVNPAAHLTGANSSLTGSGGPLLWETQLGLAFLRGLSYHDGALVVTKAGYYYIYSKVQLGGVGCPPGLASTITHGLYKRTPRYPEELELLVSQQSPCGRATSSSRVWWDSSFLGGVVYLEAGEKVVVRVLDERLVRLRDGTRSYFGAFMV |  | 0.0959 µg/mL | binds |  | 0.0503 µg/mL | binds | 
LIGHT-41 (ligand, Printed mutations: G150R, S160G, L220S; Soluble protein carries an N-terminal His tag) DGPAGSWEQLIQERRSHEVNPAAHLTGANSSLTGSGGPLLWETQLGLAFLRGLSYHDGALVVTKAGYYYIYSKVQLRGVGCPLGLAGTITHGLYKRTPRYPEELELLVSQQSPCGRATSSSRVWWDSSFLGGVVHLEAGEKVVVRVSDERLVRLRDGTRSYFGAFMV | 0.0311 µg/mL | 0.108 µg/mL | binds |  |  |  | 
LIGHT-45 (ligand, Printed mutations: G150S, S160P, T161S, L220S, R223H; Soluble protein carries an N-terminal His tag) DGPAGSWEQLIQERRSHEVNPAAHLTGANSSLTGSGGPLLWETQLGLAFLRGLSYHDGALVVTKAGYYYIYSKVQLSGVGCPLGLAPSITHGLYKRTPRYPEELELLVSQQSPCGRATSSSRVWWDSSFLGGVVHLEAGEKVVVRVSDEHLVRLRDGTRSYFGAFMV | 0.0264 µg/mL | 0.0362 µg/mL | binds |  |  |  | 
LIGHT-46 (ligand, Printed mutations: L126M, K214E; Soluble protein carries an N-terminal His tag) DGPAGSWEQLIQERRSHEVNPAAHLTGANSSLTGSGGPLLWETQLGLAFLRGMSYHDGALVVTKAGYYYIYSKVQLGGVGCPLGLASTITHGLYKRTPRYPEELELLVSQQSPCGRATSSSRVWWDSSFLGGVVHLEAGEEVVVRVLDERLVRLRDGTRSYFGAFMV |  | 0.0675 µg/mL | binds |  | 0.0978 µg/mL | binds | 
LIGHT-47 (ligand, Printed mutations: L126M, A190V, H208Y; Soluble protein carries an N-terminal His tag) DGPAGSWEQLIQERRSHEVNPAAHLTGANSSLTGSGGPLLWETQLGLAFLRGMSYHDGALVVTKAGYYYIYSKVQLGGVGCPLGLASTITHGLYKRTPRYPEELELLVSQQSPCGRVTSSSRVWWDSSFLGGVVYLEAGEKVVVRVLDERLVRLRDGTRSYFGAFMV | 0.0706 µg/mL | 0.228 µg/mL | binds | binds |  |  | 
LIGHT-48 (ligand, Printed mutations: L120P, L220R; Soluble protein carries an N-terminal His tag) DGPAGSWEQLIQERRSHEVNPAAHLTGANSSLTGSGGPLLWETQLGPAFLRGLSYHDGALVVTKAGYYYIYSKVQLGGVGCPLGLASTITHGLYKRTPRYPEELELLVSQQSPCGRATSSSRVWWDSSFLGGVVHLEAGEKVVVRVRDERLVRLRDGTRSYFGAFMV | 0.42 µg/mL | 0.756 µg/mL | binds | binds |  |  | 
LIGHT-50 (ligand, Printed mutations: N102R, L120Q, H208R, K214E; Soluble protein carries an N-terminal His tag) DGPAGSWEQLIQERRSHEVNPAAHLTGARSSLTGSGGPLLWETQLGQAFLRGLSYHDGALVVTKAGYYYIYSKVQLGGVGCPLGLASTITHGLYKRTPRYPEELELLVSQQSPCGRATSSSRVWWDSSFLGGVVRLEAGEEVVVRVLDERLVRLRDGTRSYFGAFMV |  |  | binds | binds |  | binds | binds
LIGHT-51 (ligand, Printed mutations: A101D, S160N, L220S; Soluble protein carries an N-terminal His tag) DGPAGSWEQLIQERRSHEVNPAAHLTGDNSSLTGSGGPLLWETQLGLAFLRGLSYHDGALVVTKAGYYYIYSKVQLGGVGCPLGLANTITHGLYKRTPRYPEELELLVSQQSPCGRATSSSRVWWDSSFLGGVVHLEAGEKVVVRVSDERLVRLRDGTRSYFGAFMV |  |  | binds | binds |  | binds | binds
